According to patent US20220339270A1 (published 2022):

Columns and labels:
[1] = molecular target: T1, recombinant tau mutant protein tau441-T212A+T231A (phospho-Tau variant) (human, UniProt P10636 1-758, phosphorylated (phospho-Tau variant; kinase DYRK1A by the context)); assay: PT3 ELISA with phospho-Tau variants
T1 construct: not shown: his tag (detected with anti-his antibody)

[2] = molecular target: T2, recombinant tau mutant protein tau441-T212A+T217A (phospho-Tau variant) (human, UniProt P10636 1-758, phosphorylated (phospho-Tau variant; kinase DYRK1A by the context)); assay: PT3 ELISA with phospho-Tau variants
T2 construct: not shown: his tag (detected with anti-his antibody)

[3] = molecular target: T3, recombinant tau mutant protein tau441-T212A+S214A (phospho-Tau variant) (human, UniProt P10636 1-758, phosphorylated (phospho-Tau variant; kinase DYRK1A by the context)); assay: PT3 ELISA with phospho-Tau variants
T3 construct: not shown: his tag (detected with anti-his antibody)

[4] = molecular target: T4, recombinant tau mutant protein tau441-T212A+T217A+T231A (phospho-Tau variant) (human, UniProt P10636 1-758, phosphorylated (phospho-Tau variant; kinase DYRK1A by the context)); assay: PT3 ELISA with phospho-Tau variants
T4 construct: not shown: his tag (detected with anti-his antibody)

[5] = molecular target: T5, recombinant tau mutant protein tau441-T217A+T231A (phospho-Tau variant) (human, UniProt P10636 1-758, phosphorylated (phospho-Tau variant; kinase DYRK1A by the context)); assay: PT3 ELISA with phospho-Tau variants
T5 construct: not shown: his tag (detected with anti-his antibody)

[6] = molecular target: T6, extracellular tau in the form of paired helical filaments (ePHF) (UniProt P10636-8 1-441, limits assumed); assay: method not stated
T6 construct: Immobilised on 96-well plates for the ePHF tau ELISA; also called ePHF tau; PHF tau
T6 sequence (P10636 other isoform, or with tags, fused parts or gaps limits assumed): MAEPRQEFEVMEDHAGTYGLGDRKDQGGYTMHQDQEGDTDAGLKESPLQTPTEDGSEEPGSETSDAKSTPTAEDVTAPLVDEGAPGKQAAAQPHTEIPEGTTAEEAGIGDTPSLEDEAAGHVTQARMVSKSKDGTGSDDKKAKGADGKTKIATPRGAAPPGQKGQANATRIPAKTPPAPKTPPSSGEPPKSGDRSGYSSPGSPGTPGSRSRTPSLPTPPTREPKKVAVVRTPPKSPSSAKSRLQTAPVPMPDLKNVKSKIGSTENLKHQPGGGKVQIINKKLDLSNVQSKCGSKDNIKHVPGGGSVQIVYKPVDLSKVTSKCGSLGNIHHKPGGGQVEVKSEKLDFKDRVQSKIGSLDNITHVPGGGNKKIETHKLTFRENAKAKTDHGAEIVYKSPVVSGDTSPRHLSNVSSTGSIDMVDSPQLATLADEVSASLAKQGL

Tau441_T181A = molecular target: T7, Tau441_T181A (human, UniProt P10636 2-758); assay: ELISA, PT3 immobilized, tau protein applied at 333 ng/mL
T7 construct: not phosphorylated; not shown: his tag added
T7 sequence (P10636 other isoform, or with tags, fused parts or gaps T181A T181A): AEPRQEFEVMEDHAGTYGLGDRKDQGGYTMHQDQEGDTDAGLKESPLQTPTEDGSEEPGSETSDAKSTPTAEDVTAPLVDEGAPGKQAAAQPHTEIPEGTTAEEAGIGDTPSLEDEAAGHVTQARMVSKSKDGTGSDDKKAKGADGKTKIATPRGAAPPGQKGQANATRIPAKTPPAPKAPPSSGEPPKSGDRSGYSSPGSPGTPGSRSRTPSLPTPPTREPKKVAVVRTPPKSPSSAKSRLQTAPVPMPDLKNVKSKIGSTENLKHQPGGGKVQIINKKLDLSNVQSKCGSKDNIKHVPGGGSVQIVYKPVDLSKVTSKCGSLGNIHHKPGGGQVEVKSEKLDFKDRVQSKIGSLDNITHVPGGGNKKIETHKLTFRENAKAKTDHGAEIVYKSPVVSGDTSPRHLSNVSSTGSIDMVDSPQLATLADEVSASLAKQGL

Tau441_S404A = molecular target: T8, Tau441_S404A (human, UniProt P10636 2-758); assay: as above
T8 construct: not phosphorylated; not shown: his tag added

Phospho_Tau441_T217A = molecular target: T9, Phospho_Tau441_T217A (human, UniProt P10636 2-758, phosphorylated in vitro by DYRK1A; sites not determined); assay: as above
T9 construct: not shown: his tag added
T9 sequence (P10636 other isoform, or with tags, fused parts or gaps T217A T217A): as the sequence (P10636 other isoform, or with tags, fused parts or gaps T181A T181A) above, with A180T, T216A counted along it

Phospho_Tau441_S422A = molecular target: T10, Phospho_Tau441_S422A (human, UniProt P10636 2-758, phosphorylated in vitro by DYRK1A; sites not determined); assay: as above
T10 construct: not shown: his tag added

Phospho_Tau441_S396A = molecular target: T11, Phospho_Tau441_S396A (human, UniProt P10636 2-758, phosphorylated in vitro by DYRK1A; sites not determined); assay: as above
T11 construct: not shown: his tag added

Tau441_S199A = molecular target: T12, Tau441_S199A (human, UniProt P10636 2-758); assay: as above
T12 construct: not phosphorylated; not shown: his tag added

Phospho_Tau441_T202A = molecular target: T13, Phospho_Tau441_T202A (human, UniProt P10636 2-758, phosphorylated in vitro by DYRK1A; sites not determined); assay: as above
T13 construct: the list of mutated sites gives S202; also called S202 mutant; not shown: his tag added
T13 sequence (P10636 other isoform, or with tags, fused parts or gaps T202A T202A): as the sequence (P10636 other isoform, or with tags, fused parts or gaps T181A T181A) above, with A180T, S201A counted along it

Phospho_Tau441_S404A = molecular target: T14, Phospho_Tau441_S404A (human, UniProt P10636 2-758, phosphorylated in vitro by DYRK1A; sites not determined); assay: as above
T14 construct: not shown: his tag added

Tau441_S400A = molecular target: T15, Tau441_S400A (human, UniProt P10636 2-758); assay: as above
T15 construct: not phosphorylated; not shown: his tag added

Phospho_Tau441_S199A = molecular target: T16, Phospho_Tau441_S199A (human, UniProt P10636 2-758, phosphorylated in vitro by DYRK1A; sites not determined); assay: as above
T16 construct: not shown: his tag added

Phospho_Tau441_T212A = molecular target: T17, Phospho_Tau441_T212A (human, UniProt P10636 2-758, phosphorylated in vitro by DYRK1A; sites not determined); assay: as above
T17 construct: not shown: his tag added

Phospho_Tau441_S400A = molecular target: T18, Phospho_Tau441_S400A (human, UniProt P10636 2-758, phosphorylated in vitro by DYRK1A; sites not determined); assay: as above
T18 construct: not shown: his tag added

Tau441_T217A = molecular target: T19, Tau441_T217A (human, UniProt P10636 2-758); assay: as above
T19 construct: not phosphorylated; not shown: his tag added
T19 sequence (P10636 other isoform, or with tags, fused parts or gaps T217A T217A): as the sequence (P10636 other isoform, or with tags, fused parts or gaps T181A T181A) above, with A180T, T216A counted along it

Tau441_T202A = molecular target: T20, Tau441_T202A (human, UniProt P10636 2-758); assay: as above
T20 construct: not phosphorylated; printed T202A, the text gives S202; also called S202 mutant; not shown: his tag added
T20 sequence (P10636 other isoform, or with tags, fused parts or gaps T202A T202A): as the sequence (P10636 other isoform, or with tags, fused parts or gaps T181A T181A) above, with A180T, S201A counted along it

Phospho_Tau441_T181A = molecular target: T21, Phospho_Tau441_T181A (human, UniProt P10636 2-758, phosphorylated in vitro by DYRK1A; sites not determined); assay: as above
T21 construct: not shown: his tag added
T21 sequence (P10636 other isoform, or with tags, fused parts or gaps T181A T181A): as the sequence (P10636 other isoform, or with tags, fused parts or gaps T181A T181A) above

Tau441_T212A = molecular target: T22, Tau441_T212A (human, UniProt P10636 2-758); assay: as above
T22 construct: not phosphorylated; not shown: his tag added

Phospho_Tau441_T231A = molecular target: T23, Phospho_Tau441_T231A (human, UniProt P10636 2-758, phosphorylated in vitro by DYRK1A; sites not determined); assay: as above
T23 construct: not shown: his tag added
T23 sequence (P10636 other isoform, or with tags, fused parts or gaps T231A T231A): as the sequence (P10636 other isoform, or with tags, fused parts or gaps T181A T181A) above, with A180T, T230A counted along it

Phospho_Tau441_T205A = molecular target: T24, Phospho_Tau441_T205A (human, UniProt P10636 2-758, phosphorylated in vitro by DYRK1A; sites not determined); assay: as above
T24 construct: not shown: his tag added
T24 sequence (P10636 other isoform, or with tags, fused parts or gaps T205A T205A): as the sequence (P10636 other isoform, or with tags, fused parts or gaps T181A T181A) above, with A180T, T204A counted along it

Tau441_S396A = molecular target: T25, Tau441_S396A (human, UniProt P10636 2-758); assay: as above
T25 construct: not phosphorylated; not shown: his tag added

Tau441_T231A = molecular target: T26, Tau441_T231A (human, UniProt P10636 2-758); assay: as above
T26 construct: not phosphorylated; not shown: his tag added
T26 sequence (P10636 other isoform, or with tags, fused parts or gaps T231A T231A): as the sequence (P10636 other isoform, or with tags, fused parts or gaps T181A T181A) above, with A180T, T230A counted along it

Tau441_T205A = molecular target: T27, Tau441_T205A (human, UniProt P10636 2-758); assay: as above
T27 construct: not phosphorylated; not shown: his tag added
T27 sequence (P10636 other isoform, or with tags, fused parts or gaps T205A T205A): as the sequence (P10636 other isoform, or with tags, fused parts or gaps T181A T181A) above, with A180T, T204A counted along it

[7] = molecular target: T28, Tau441-T212A + S214A, phosphorylated in vitro by DYRK1A (human, UniProt P10636 1-758, phosphorylated in vitro by DYRK1A; occupied sites not determined individually); assay: PT3 ELISA, 210 ng/mL DYRK1A-phosphorylated tau variant
T28 construct: His-tagged

[8] = molecular target: T29, Tau441-T212A + T231A, phosphorylated in vitro by DYRK1A (human, UniProt P10636 1-758, phosphorylated in vitro by DYRK1A; occupied sites not determined individually); assay: as above
T29 construct: His-tagged

[9] = molecular target: T30, Tau441-T212A + T217A + T231A, phosphorylated in vitro by DYRK1A (human, UniProt P10636 1-758, phosphorylated in vitro by DYRK1A; occupied sites not determined individually); assay: as above
T30 construct: His-tagged

[10] = molecular target: T31, Tau441-T217A + T231A, phosphorylated in vitro by DYRK1A (human, UniProt P10636 1-758, phosphorylated in vitro by DYRK1A; occupied sites not determined individually); assay: as above
T31 construct: His-tagged

[11] = molecular target: T32, Wild-type Tau441, phosphorylated in vitro by DYRK1A (human, UniProt P10636 1-758); assay: as above
T32 construct: Recombinant protein detected with an anti-his antibody; also called phospho-tau

[12] = molecular target: T33, Tau441-T212A + T217A, phosphorylated in vitro by DYRK1A (human, UniProt P10636 1-758, phosphorylated in vitro by DYRK1A; occupied sites not determined individually); assay: as above
T33 construct: His-tagged

B1: anti-tau antibody PT3 (antibody, V domains shown)
VH: EVKLVESGGDLVKPGGSLKLSCAASGFTFSSYAMSWVRQNPEKRLEWVASISKGGNTYYPNSVKGRFTISRDNARNILYLQMSSLRSEDTALYYCARGWGDYGWFAYWGQVTLVTVSA
VL: DIKMTQSPSSMYASLGERVTITCKASQDINRYLNWFQQKPGKSPKTLIYRANRLLDGVPSRFSGSGSGQDYSLTISSLDYEDMGIYYCLQYDEFPLTFGDGTKLELK
notes: also called purified PT3 antibody
- binding result [1]: no binding (tested: 210 ng/mL)
- binding result [2]: no binding (tested: 210 ng/mL)
- binding result [3]: no binding (tested: 210 ng/mL)
- binding result [4]: no binding (tested: 210 ng/mL)
- binding result [5]: no binding (tested: 210 ng/mL)
- Kd [6]: 0.018 nM

B2: anti-tau antibody PT3 (antibody, V domains shown)
VH: B1 VH
VL: B1 VL
- OD450-570 (Tau441_T181A): 0
- OD450-570 (Tau441_S404A): 0
- OD450-570 (Phospho_Tau441_T217A): 0
- OD450-570 (Phospho_Tau441_S422A): 0.3
- OD450-570 (Phospho_Tau441_S396A): 0.5
- OD450-570 (Tau441_S199A): 0
- OD450-570 (Phospho_Tau441_T202A): 0.6
- OD450-570 (Phospho_Tau441_S404A): 0.6
- OD450-570 (Tau441_S400A): 0
- OD450-570 (Phospho_Tau441_S199A): 0.7
- OD450-570 (Phospho_Tau441_T212A): 0
- OD450-570 (Phospho_Tau441_S400A): 0.3
- OD450-570 (Tau441_T217A): 0
- OD450-570 (Tau441_T202A): 0
- OD450-570 (Phospho_Tau441_T181A): 0.4
- OD450-570 (Tau441_T212A): 0
- OD450-570 (Phospho_Tau441_T231A): 0.3
- OD450-570 (Phospho_Tau441_T205A): 0.4
- OD450-570 (Tau441_S396A): 0
- OD450-570 (Tau441_T231A): 0
- OD450-570 (Tau441_T205A): 0

B3: anti-tau antibody PT3 (antibody, V domains shown)
VH: B1 VH
VL: B1 VL
- OD450-570 [7]: 0.1 OD
- OD450-570 [8]: 0.1 OD
- OD450-570 [9]: 0 OD
- OD450-570 [10]: 0.1 OD
- OD450-570 [11]: 1.7 OD
- OD450-570 [12]: 0 OD
